Test results taken from patent US20260274968A1.

Legend:
[1] = target: human recombinant IL-18-BP (human) (UniProt O95998); test: cell-based or functional assay
[2] = target: human IL-18 receptor complex (IL-18Rα/β) (human) (UniProt Q13478)
[3] = target: human recombinant IL-18-BP (human) (UniProt O95998)

Chain of recombinant human mature IL-18 (Q14116 37-193): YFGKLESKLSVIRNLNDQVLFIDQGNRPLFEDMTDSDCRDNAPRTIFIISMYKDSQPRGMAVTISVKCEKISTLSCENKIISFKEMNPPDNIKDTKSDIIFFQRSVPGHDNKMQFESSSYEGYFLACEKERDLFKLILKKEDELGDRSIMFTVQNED
Chain of human recombinant IL-18-BP (human) (O95998 31-194 limits assumed): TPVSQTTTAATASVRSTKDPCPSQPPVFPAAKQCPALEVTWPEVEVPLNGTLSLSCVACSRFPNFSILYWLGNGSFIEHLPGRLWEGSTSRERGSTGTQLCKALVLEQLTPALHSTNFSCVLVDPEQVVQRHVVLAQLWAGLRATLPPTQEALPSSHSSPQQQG
Chain of human IL-18 receptor complex (IL-18Rα/β) (human) (Q13478 19-541, chain 1 of 2): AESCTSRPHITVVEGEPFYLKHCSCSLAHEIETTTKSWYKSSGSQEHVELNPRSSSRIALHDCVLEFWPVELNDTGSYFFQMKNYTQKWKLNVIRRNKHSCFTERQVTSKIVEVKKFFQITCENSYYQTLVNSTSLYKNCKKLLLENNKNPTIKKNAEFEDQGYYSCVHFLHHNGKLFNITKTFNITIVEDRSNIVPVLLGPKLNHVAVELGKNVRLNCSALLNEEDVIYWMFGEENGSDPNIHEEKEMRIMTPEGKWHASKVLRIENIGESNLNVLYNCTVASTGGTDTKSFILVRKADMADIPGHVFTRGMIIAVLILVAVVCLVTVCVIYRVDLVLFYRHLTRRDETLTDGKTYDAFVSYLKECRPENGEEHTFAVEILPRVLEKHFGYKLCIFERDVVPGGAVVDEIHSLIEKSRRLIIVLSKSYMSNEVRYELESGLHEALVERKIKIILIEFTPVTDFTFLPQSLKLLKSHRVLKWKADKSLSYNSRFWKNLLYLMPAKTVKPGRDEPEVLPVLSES
Chain of human IL-18 receptor complex (IL-18Rα/β) (human) (O95256 20-599, chain 2 of 2, further chain): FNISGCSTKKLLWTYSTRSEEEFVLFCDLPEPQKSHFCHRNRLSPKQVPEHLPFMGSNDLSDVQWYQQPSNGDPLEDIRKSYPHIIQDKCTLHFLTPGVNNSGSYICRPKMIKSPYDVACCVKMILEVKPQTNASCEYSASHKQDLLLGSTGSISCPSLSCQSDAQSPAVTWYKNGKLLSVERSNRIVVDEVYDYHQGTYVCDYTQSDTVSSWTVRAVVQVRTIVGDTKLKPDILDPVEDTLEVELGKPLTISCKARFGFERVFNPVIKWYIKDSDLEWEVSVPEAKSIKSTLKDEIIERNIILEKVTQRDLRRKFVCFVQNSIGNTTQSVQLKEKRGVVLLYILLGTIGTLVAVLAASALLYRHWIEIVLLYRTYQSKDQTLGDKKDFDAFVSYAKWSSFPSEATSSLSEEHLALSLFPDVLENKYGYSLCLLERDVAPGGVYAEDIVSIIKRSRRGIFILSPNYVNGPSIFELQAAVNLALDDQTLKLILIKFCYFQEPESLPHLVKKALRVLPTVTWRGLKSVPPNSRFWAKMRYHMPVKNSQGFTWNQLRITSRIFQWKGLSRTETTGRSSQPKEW

## recombinant human mature IL-18 (from UniProt Q14116 37-193) (ligand)
[1]
  EC50-SEAP (HEK Blue IL-18), fold attenuation by 1.25 µg/ml hrIL-18-BP: > 1000 fold
[2]
  EC50-SEAP, HEK-Blue IL-18 reporter cells, rhIL-18 titrated in medium alone (row 'Human rIL-18'): 0.0317 ng/mL
[3]
  EC50-SEAP, HEK-Blue IL-18 reporter cells, rhIL-18 titrated in medium with 1.25 µg/ml rhIL-18BP (row 'Human rIL-18 + BP'): > 1 ng/mL
